# From US9931433B2, “Time-controlled glucose releasing hydrogels and applications thereof” (Centre National de la Recherche Scientifique (CNRS), priority 2014, dated 2018)
# Test: Stability of the kit components after storage
# Format: physicochemical
# Conditions: 14 days storage
# Excerpt: The mechanical properties (storage and loss moduli G′ and G″) are identical at D0, D7 or D21 storage.
# The activity of the enzyme AMG was preserved after 14 days storage allowing a long term storage of the kit components.
substance,measurement,value
"glucan 1,4 α-glucosidase [AMG]",activity of the enzyme after storage,preserved
